According to patent US20210269521A1 (L AND L BIOPHARMA, published 2021):
Like-named read-outs stand apart in the source and are kept apart here.

Tests used:
[1] = molecular target: T1, human PD-1 extracellular domain protein expressed in Example 1 (tag not stated) (human, UniProt Q15116 25-170); assay: ELISA, EC50 of bispecific over EC50 of the monoclonal control
T1 construct: extracellular domain; also called PD-1 protein; not shown: human IgG1 Fc or his tag
Experimental: After washing the microplate 5 times with PBST, 50 μl/well TMB chromogenic substrate (KPL, 52-00-03) was added to the microplate, followed by incubating at room temperature for 10-15 min.
(§1) PD-1 expressed in Example 1 was diluted to a concentration of 1 μg/ml with PBS buffer, pH 7.4, and added to a 96-well microplate (Corning, CLS3590-100EA) at 50 μl per well, thereby incubating in an incubator at 37° C. for 2 hours. After discarding the liquid, a blocking solution of 5% skimmed milk (Shanghai Shenggong Biological Engineering Co., Ltd., A600669-0250) diluted with PBS was added at 200 μl per well, followed by incubating at 37° C. for 3 hours or 4° C. overnight (16-18 hours)) for blocking. Subsequently, the blocking solution was discarded, and the microplate was washed 5 times with PBST buffer (pH 7.4 PBS containing 0.05% tween-20). […] Subsequently, the microplate was washed 5 times with PBST, then 50 μl/well of 1:2500 diluted HRP-labeled secondary antibody (Jackson Immuno Research, 115-035-003) was added, thereby incubating at 37° C. for 1 hour. After washing the microplate 5 times with PBST, 50 μl/well TMB chromogenic substrate (KPL, 52-00-03) was added, then incubated at room temperature for 5-10 min. Finally, 50 μl/well of 1M H₂SO₄ was added to stop the reaction. […] Go microplate reader (ThermoFisher, 51119200) was used to read the absorption value at 450 nm and the EC50 based on the OD value was calculated.

[2] = molecular target: T2, human TIM-3 extracellular domain-human IgG1 Fc fusion protein (human, UniProt Q8TDQ0 22-199); assay: ELISA
T2 construct: Made in house or bought (ACROBiosystems TM3-H5258); also called TIM-3-hFc; not shown: human IgG1 Fc
Experimental: Goat-anti-hFc (Jackson, 109-005-008) was diluted to a concentration of 1 μg/ml with PBS buffer (pH 7.4) and added to a 96-well microplate (Corning, CLS3590-100EA) at a volume of 50 μl/well, then incubated in an incubator at 37° C. for 2 hours (Or the antigen TIM-3 was directly used to coat the microplate with a concentration of 0.5 μg/ml, and then the antibody to be tested was directly added). After discarding the liquid, a blocking solution of 5% skimmed milk (skimmed milk powder purchased from Bright) diluted with PBS was added at 200 μl per well, and the microplate was incubated for 2.5 hours at 37° C. or overnight (16-18 hours) at 4° C. for blocking. The blocking solution was discarded, and the microplate was washed 5 times with PBST buffer (PBS with pH 7.4 containing 0.05% tween-20), then 50 μl/well of 0.5 μg/ml TIM-3-hFc (Example 1) was added and incubated for 2 hours in a 37° C. incubator. After incubation, the microplate was washed 6 times with PB ST. 50 μl/well of supernatant (containing testing antibody) or different concentrations of the antibody to be tested was added, and the microplate was incubated at 37° C. for 2 hours and washed 5 times with PBST. 50 μl/well of 1:2500 diluted HRP-labeled secondary antibody (Jackson Immuno Research, 115-035-003) was added to the microplate, incubating at 37° C. for 1 hour. After washing the microplate 5 times with PBST, 50 μl/well TMB chromogenic substrate (KPL, 52-00-03) was added to the microplate, followed by incubating at room temperature for 10-15 min.

[3] = molecular target: T2, human TIM-3 extracellular domain-human …; assay: ELISA, EC50 of bispecific over EC50 of the monoclonal control
[4] = molecular target: T1, human PD-1 extracellular domain protein …; assay: ELISA, PD-1 coated
Experimental: as §1

Human PD-1-his = molecular target: T3, Human PD-1-his (human, UniProt Q15116 25-170); assay: SPR Biacore, antibody captured on Protein A, antigen in flow
T3 construct: extracellular domain; not shown: his tag
Experimental: (§2) First, Protein A (Thermo Pierce, Cat #21181) was conjugated to the biosensing chip CMS (Cat. #BR-1005-30, GE), and the chip was activated with the newly prepared 50 mM NHS (N-hydroxysuccinimide) and 200 mM EDC [1-ethyl-3-(3-dimethylaminopropyl) carbodiimide hydrochloride], then 10 μg/ml Protein A prepared with 10 mM NaAC (pH 4.0) was injected. […] The flow rate was 30 μl/min, the binding time was 180 seconds and the dissociation time is 300 seconds. Subsequently, the chip was washed for 30s with 10 mM Glycine-HCl (pH 1.5) at 30 μl/min. The data were fitted with a 1:1 Langmuir model using the software of Biacore T200 evaluation version 3.0 (GE), and the affinity value KD was obtained.

[5] = molecular target: T4, human TIM-3 extracellular domain-his tag protein (human, UniProt Q8TDQ0 22-199); assay: as above
T4 construct: Made in house or bought (ACROBiosystems TM3-H5229); also called TIM-3-his; Human Tim3-his; not shown: his tag
Experimental: as §2

[6] = molecular target: T2, human TIM-3 extracellular domain-human …; assay: ELISA; remark: listed apart in the source
[7] = molecular target: T1, human PD-1 extracellular domain protein …; assay: ELISA, PD-1 coated; remark: listed apart in the source
Experimental: as §1
The TIM-3 and PD-1 bispecific antibodies of the present invention were tested for their affinity for TIM-3 and PD-1 using the methods in Example 3 and Example 5, respectively.

Row | Binder | Multiple of EC50 variation [1] | EC50 [2] | Multiple of EC50 variation [3] | EC50 [4] | Kd (Human PD-1-his) | koff (Human PD-1-his) | kon (Human PD-1-his) | Kd [5] | koff [5] | kon [5] | EC50 [6] | EC50 [7]
1 | bispecific antibody LB246 (bispecific antibody, human IgG4 S228P, kappa) light: DIQMTQSPSSLSASVGDRVTITCHASQGISSNIGWLQQKPGKAFKGLIYQGSNLEDGVPSRFSGSGSGADYTLTISSLQPEDFATYYCVQFAQFPPTFGQGTKLEIKGGGGSGGGGSGGGGSEVQLVESGGGLVKPGGSLRLSCAASGFTFSDYYMAWVRQAPGKGLEWVANINYDGSNTYYLDSLKSRFTISRDNAKNSLYLQMNSLRAEDTAVYYCARGLYYYGGNYFAYWGQGTLVTVSSGGGGSGGGGSGGGGSEIVLTQSPATLSLSPGERATLSCRASKGVSTSGYSYLHWYQQKPGQAPRLLIYLASYLESGVPARFSGSGSGTDFTLTISSLEPEDFAVYYCQHSRDLPLTFGGGTKVEIKRTVAAPSVFIFPPSDEQLKSGTASVVCLLNNFYPREAKVQWKVDNALQSGNSQESVTEQDSKDSTYSLSSTLTLSKADYEKHKVYACEVTHQGLSSPVTKSFNRGECGGGGSGGGGSGGGGSEVQLVESGGGLVKPGGSLRLSCAASGFTFSDYYMAWVRQAPGKGLEWVANINYDGSNTYYLDSLKSRFTISRDNAKNSLYLQMNSLRAEDTAVYYCARGLYYYGGNYFAYWGQGTLVTVSSGGGGSGGGGSGGGGSDIQMTQSPSSLSASVGDRVTITCHASQGISSNIGWLQQKPGKAFKGLIYQGSNLEDGVPSRFSGSGSGADYTLTISSLQPEDFATYYCVQFAQFPPTFGQGTKLEIK heavy: not shown | 21 ratio | 2.05 nM | 12.9 ratio | 5.51 nM | – | – | – | – | – | – | – | –
2 | bispecific antibody LB247 (bispecific antibody, human IgG4 S228P, kappa) light: EIVLTQSPATLSLSPGERATLSCRASKGVSTSGYSYLHWYQQKPGQAPRLLIYLASYLESGVPARFSGSGSGTDFTLTISSLEPEDFAVYYCQHSRDLPLTFGGGTKVEIKRTVAAPSVFIFPPSDEQLKSGTASVVCLLNNFYPREAKVQWKVDNALQSGNSQESVTEQDSKDSTYSLSSTLTLSKADYEKHKVYACEVTHQGLSSPVTKSFNRGEC heavy: not shown | 1.98 ratio | 1.86 nM | 2.38 ratio | 0.19 nM | 7.34 nM | 0.00259 s⁻¹ | 353000 M⁻¹ s⁻¹ | 8.29 nM | 0.00332 s⁻¹ | 401000 M⁻¹ s⁻¹ | – | –
3 | bispecific antibody LB147 (bispecific antibody, human IgG4 S228P, kappa, Ab32VL-(G4S)3-ab32VH-(G4S)3-PemVL-κ with PemVH-hIgG4) light: DIQMTQSPSSLSASVGDRVTITCRASENIYSYLTWYQQKPGKAPKLLIYNAKTLAEGVPSRFSGSGSGTDFTLTISSLQPEDFATYYCQQHYGTPLTFGQGTKLEIKGGGGSGGGGSGGGGSEVQLVESGGGLVKPGGSLRLSCAASGFTFSDYYMTWVRQAPGKGLEWVSSINYDGRNTYYLDSLKSRFTISRDNAKNSLYLQMNSLRAEDTAVYYCARGYYYYGSSPNYFDYWGQGTLVTVSSGGGGSGGGGSGGGGSEIVLTQSPATLSLSPGERATLSCRASKGVSTSGYSYLHWYQQKPGQAPRLLIYLASYLESGVPARFSGSGSGTDFTLTISSLEPEDFAVYYCQHSRDLPLTFGGGTKVEIKRTVAAPSVFIFPPSDEQLKSGTASVVCLLNNFYPREAKVQWKVDNALQSGNSQESVTEQDSKDSTYSLSSTLTLSKADYEKHKVYACEVTHQGLSSPVTKSFNRGEC heavy: not shown | 0.81 ratio | 0.62 nM | 0.79 ratio | 0.056 nM | – | – | – | – | – | – | – | –
4 | bispecific antibody LB123 (bispecific antibody, human IgG4 S228P, kappa) light: EIVLTQSPATLSLSPGERATISCRASKGVSTSGYSYLHWYQQKPGQAPRLLIYLASYLESGVPARFSGSGSGTDFTLTISSLEPEDFATYYCQHSRELPLTFGTGTKVEIKRTVAAPSVFIFPPSDEQLKSGTASVVCLLNNFYPREAKVQWKVDNALQSGNSQESVTEQDSKDSTYSLSSTLTLSKADYEKHKVYACEVTHQGLSSPVTKSFNRGEC heavy: not shown | – | – | – | – | – | – | – | – | – | – | 0.181 nM | 0.216 nM
5 | bispecific antibody LB124 (bispecific antibody, human IgG4 S228P, kappa) light: EIVLTQSPATLSLSPGERATISCRASKGVSTSGYSYLHWYQQKPGQAPRLLIYLASYLESGVPARFSGSGSGTDFTLTISSLEPEDFATYYCQHSRELPLTFGTGTKVEIKRTVAAPSVFIFPPSDEQLKSGTASVVCLLNNFYPREAKVQWKVDNALQSGNSQESVTEQDSKDSTYSLSSTLTLSKADYEKHKVYACEVTHQGLSSPVTKSFNRGEC heavy: not shown | – | – | – | – | – | – | – | – | – | – | 0.438 nM | 0.383 nM
